Data from PMC9866879, “BREVIPEDICELLUS Positively Regulates Salt-Stress Tolerance in Arabidopsis thaliana”.

T1: BP (B…US) (Arabidopsis thaliana, UniProt P46639 1-398)
T1 sequence: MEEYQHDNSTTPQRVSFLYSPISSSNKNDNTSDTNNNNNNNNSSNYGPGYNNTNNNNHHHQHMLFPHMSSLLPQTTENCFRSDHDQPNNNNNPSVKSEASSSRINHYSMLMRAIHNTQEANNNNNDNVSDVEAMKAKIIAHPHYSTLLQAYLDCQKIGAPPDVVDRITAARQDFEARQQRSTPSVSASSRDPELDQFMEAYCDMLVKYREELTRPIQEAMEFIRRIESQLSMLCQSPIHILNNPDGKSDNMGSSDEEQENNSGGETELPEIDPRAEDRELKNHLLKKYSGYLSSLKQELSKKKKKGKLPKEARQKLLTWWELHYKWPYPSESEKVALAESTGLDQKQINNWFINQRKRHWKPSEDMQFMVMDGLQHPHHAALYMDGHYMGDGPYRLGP

B1: XTH7 promoter probe, unlabeled competitor (dsDNA)
DNA 1: TGTAATGCTGACACGTGTCCCAGT
DNA 2: ACTGGGACACGTGTCAGCATTACA
B2: XTH7 promoter probe (TGAC) (dsDNA)
DNA 1: TGTAATGCTGACACGTGTCCCAGT
DNA 2: ACTGGGACACGTGTCAGCATTACA

What was measured:
BP (B…US) [1] = target: T1, BP (B…US); assay: competition; unlabeled competitor against biotin-labelled N1; signal gradually decreased; LightShift Chemiluminescent EMSA kit (Thermo) per manufacturer's protocol; buffer, salt, pH and temperature not stated; settings: protein: recombinant; tags: GST (pGEX4T-3); blunt
BP (B…US) [2] = target: T1, BP (B…US); assay: EMSA; LightShift Chemiluminescent EMSA kit (Thermo) per manufacturer's protocol; buffer, salt, pH and temperature not stated; settings: protein: recombinant; tags: GST (pGEX4T-3); label: biotin; blunt

Binder | binding result (BP (B…US) [1]) | binding result (BP (B…US) [2])
B1 | binds | 
B2 |  | binds
